B1: FI28 variant 1 (antibody, V domains shown)
VH: EVQLVESGGGAVQPGESLKLSCAASGFTFSNYGMHWVRQAPGKGLEWVAVISYDGSNKYYADSVKGRFTISRDNSKDTLYLQMNSLRAEDTALFYCAKERPLRLLRYFDWLSGGANDYWGQGTLVTVSS
VL: DIVMTQSPDSLAVSLGERATINCKSSQSVLYSSNNKNYLAWYQQKPGQPPKLLIDWASTRESGVPDRFSGSGSGTDFTLTISNLQVEDVAVYYCQQYYRSPSFGQGTKLEIK
B2: FI6 variant 2 (antibody, V domains shown)
VH: QVQLVQSGGGVVQPGRSLRLSCVASGFTFSTYAMHWVRQAPGRGLEWVAVISYDGNYKYYADSVKGRFSISRDNSNNTLHLEMNTLRTEDTALYYCAKDSQLRSLLYFEWLSQGYFDPWGQGTLVTVTS
VL: DIQMTQSPDSLAVSLGARATINCKSSQSVTFNYKNYLAWYQQKPGQPPKVLIYWASARESGVPDRFSGSGSGTDFTLTISSLQAEDVAVYYCQQHYRTPPTFGQGTKVEIK
B3: FI6 variant 3 (antibody, V domains shown)
VH: QVQLVESGGGVVQPGRSLRLSCAASGFTFSTYAMHWVRQAPGKGLEWVAVISYDANYKYYADSVKGRFTISRDNSKNTLYLQMNSLRAEDTAVYYCAKDSQLRSLLYFEWLSQGYFDYWGQGTLVTVSS
VL: not shown

Assays:
[1] = target: HA of H1N1 A/PR/8/34 (influenza A virus H1N1 A/PR/8/34, UniProt P03452 18-565); test: cell-based or functional assay
[2] = target: HA of H5N1 A/INDO/5/05 (influenza A virus H5N1 A/INDO/5/05); test: cell-based or functional assay
[3] = target: HA of H7N1 A/ck/IT/13474/99 (influenza A virus H7N1 A/ck/IT/13474/99); test: cell-based or functional assay
[4] = target: HA of H5N1 A/HK/213/03 (influenza A virus H5N1 A/HK/213/03); test: cell-based or functional assay
[5] = target: T1, HA of H7N1 A/ck/FPV/Rostock/34 (influenza A virus H7N1 …, UniProt P03459 19-563); test: cell-based or functional assay
[6] = target: HA of H5N1 A/AH/1/05 (influenza A virus H5N1 A/AH/1/05); test: cell-based or functional assay
[7] = target: HA of H5N1 A/HK/491/97 (influenza A virus H5N1 A/HK/491/97); test: cell-based or functional assay
[8] = target: HA of H5N1 A/WS/MONG/05 (influenza A virus H5N1 A/WS/MONG/05); test: cell-based or functional assay
[9] = target: T1, HA of H7N1 A/ck/FPV/Rostock/34; test: cell-based or functional assay; remark: listed apart in the source
[10] = target: HA of H5 A/VN/1194/04 (influenza A virus H5 A/VN/1194/04); test: cell-based or functional assay
[11] = target: HA of H14N5 A/mallard/Astrakhan/263/82 on transfected 293 cells (influenza A virus H14N5 …, UniProt P26136 18-568); test: staining of HA-transfected 293 cells
[12] = target: HA of H12N5 A/duck/Alberta/60/76 on transfected 293 cells (influenza A virus H12N5 …, UniProt P03446 17-564); test: staining of HA-transfected 293 cells
[13] = target: HA of H2N2 A/Singapore/1/57 (influenza A virus H2N2 A/Singapore/1/57, UniProt Q67333 16-525); test: ELISA on recombinant or purified HA
[14] = target: HA of H13N6 A/gull/Maryland/704/77 (ELISA antigen) (influenza A virus H13N6 …, UniProt P13103 19-532); test: ELISA on recombinant or purified HA
[15] = target: HA of H4N6 A/duck/Czechoslovakia/56 (ELISA antigen) (influenza A virus H4N6 …, UniProt P19696 17-527); test: ELISA on recombinant or purified HA

Binder | Neutralization of infectious viruses (IC50, µg/ml) [1] [µg/mL] | Neutralization of HA-pseudotypes (IC90, µg/ml) [2] [µg/mL] | Neutralization of HA-pseudotypes (IC90, µg/ml) [3] [µg/mL] | Neutralization of HA-pseudotypes (IC90, µg/ml) [4] [µg/mL] | Neutralization of HA-pseudotypes (IC90, µg/ml) [5] [µg/mL] | Neutralization of HA-pseudotypes (IC90, µg/ml) [6] [µg/mL] | Neutralization of HA-pseudotypes (IC90, µg/ml) [7] [µg/mL] | Neutralization of HA-pseudotypes (IC90, µg/ml) [8] [µg/mL] | Neutralization H7 A/ck/FPV Rostock/34 IC50 (µg/ml), pseudovirus [9] [µg/mL] | Neutralization H5 A/VN/1194/04 IC50 (µg/ml), pseudovirus [10] [µg/mL] | binding result [11] | binding result [12] | EC50 [13] [µg/mL] | EC50 [14] [µg/mL] | EC50 [15] [µg/mL]
B1 | > 100 | 0.35 | > 100 | 0.33 | > 100 | 0.05 | 0.05 | 0.04 |  |  |  |  |  |  | 
B2 | 2.2 | 0.31 | 1.87 | 0.02 | 0.09 | 0.05 | 0.07 | 0.03 | 0.02 | 0.0054 | binds | binds | 0.029 | 0.088 | 
B3 |  |  |  |  |  |  |  |  | 0.0274 | 0.0035 | binds | binds | 0.021 | 0.062 | 0.185

Reference: US20170204167A1 (INSTITUTE FOR RESEARCH IN BIOMEDICINE, published 2017)
